Source: article PMC8860598
Where a chain is given by its changes, count along the chain named. Like-named read-outs stand apart in the source and are kept apart here.

Legend:
Assay in all cases: EMSA
[1] = target: T1, Sen1 HD wt (Saccharomyces cerevisiae, UniProt Q00416 1095-1905)
T1 sequence: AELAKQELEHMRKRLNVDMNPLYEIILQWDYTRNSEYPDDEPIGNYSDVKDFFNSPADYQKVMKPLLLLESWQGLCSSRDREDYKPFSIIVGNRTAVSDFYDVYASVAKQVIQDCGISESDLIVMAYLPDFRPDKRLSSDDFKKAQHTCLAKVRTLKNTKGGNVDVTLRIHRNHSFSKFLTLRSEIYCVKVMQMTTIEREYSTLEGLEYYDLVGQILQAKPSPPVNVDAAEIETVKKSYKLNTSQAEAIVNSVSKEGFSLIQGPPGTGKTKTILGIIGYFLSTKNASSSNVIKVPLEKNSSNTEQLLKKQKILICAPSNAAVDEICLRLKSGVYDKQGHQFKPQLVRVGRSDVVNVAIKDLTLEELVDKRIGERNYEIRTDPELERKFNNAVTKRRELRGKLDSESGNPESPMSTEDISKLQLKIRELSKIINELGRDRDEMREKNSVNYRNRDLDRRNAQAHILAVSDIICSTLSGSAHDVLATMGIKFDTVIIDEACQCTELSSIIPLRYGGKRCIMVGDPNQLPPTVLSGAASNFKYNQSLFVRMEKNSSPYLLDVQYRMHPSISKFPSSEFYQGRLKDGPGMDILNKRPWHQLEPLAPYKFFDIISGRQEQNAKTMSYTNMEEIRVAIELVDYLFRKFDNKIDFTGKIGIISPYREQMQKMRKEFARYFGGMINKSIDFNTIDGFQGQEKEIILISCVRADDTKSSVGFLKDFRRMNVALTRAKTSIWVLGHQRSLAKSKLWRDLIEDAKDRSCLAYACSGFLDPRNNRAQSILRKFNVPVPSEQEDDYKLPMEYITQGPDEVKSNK

[2] = target: T2, Sen1 HD T1623V (Saccharomyces cerevisiae, UniProt Q00416 1095-1905, T1623V)
T2 sequence: T1 sequence with T529V

[3] = target: T3, Sen1 HD T1623E (Saccharomyces cerevisiae, UniProt Q00416 1095-1905, T1623E)
T3 sequence: T1 sequence with T529E

[4] = target: T1, Sen1 HD wt; remark: listed apart in the source
[5] = target: T2, Sen1 HD T1623V; remark: listed apart in the source

With UUCAUUUCAGACCAGCACCCACUCACUACAACUCACGACCAGGC (ssRNA) [DL3508 (called 40-mer RNA; printed sequence is 44 nt)] the Kd [1] was 0.0131 µM, the Kd [2] was 0.0127 µM and the Kd [3] was 0.1 µM. The Kd [4] was 0.0064 µM and the Kd [5] was 0.0081 µM.
